The record followed here is patent US20060063149A1 (BIOKIT S A, published 2006).

The target in one test is T1, Tp17-HIS monomers (Treponema pallidum, UniProt P29722 23-156).
T1 construct: also called monomeric Tp17-His; not shown: HIS tag from the pET24a vector
T1 sequence: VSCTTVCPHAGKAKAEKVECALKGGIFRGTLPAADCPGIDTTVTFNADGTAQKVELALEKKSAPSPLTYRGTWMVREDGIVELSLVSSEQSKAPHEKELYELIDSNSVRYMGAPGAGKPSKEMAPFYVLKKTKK
Kind of test: size-exclusion chromatography of complexes formed in vitro.

The next test has as its target T2, Tp17-HIS dimers (Treponema pallidum, UniProt P29722 23-156).
T2 construct: also called dimeric Tp17-His; not shown: HIS tag from the pET24a vector
T2 sequence: T1 sequence
Described as above.

Another test concerns the target T3, GST-Tp47 fusion protein (Treponema pallidum, UniProt P29723 20-434).
T3 construct: Control protein that shares the GST moiety with GST-Tp17; also called control GST-Tp47 antigen; not shown: GST moiety
T3 sequence: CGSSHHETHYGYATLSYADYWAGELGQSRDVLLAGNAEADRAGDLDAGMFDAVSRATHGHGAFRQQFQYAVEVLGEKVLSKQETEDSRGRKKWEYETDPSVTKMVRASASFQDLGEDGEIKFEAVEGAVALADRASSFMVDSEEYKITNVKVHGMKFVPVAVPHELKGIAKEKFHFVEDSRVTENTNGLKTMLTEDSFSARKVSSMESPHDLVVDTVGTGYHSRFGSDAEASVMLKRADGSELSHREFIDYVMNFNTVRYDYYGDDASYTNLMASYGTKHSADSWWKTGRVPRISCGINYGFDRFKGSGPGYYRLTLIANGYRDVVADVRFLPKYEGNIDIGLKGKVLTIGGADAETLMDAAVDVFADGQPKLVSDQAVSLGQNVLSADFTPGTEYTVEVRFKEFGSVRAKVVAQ
Kind of test: Far Western blot, lysozyme on PVDF membrane.

B1: recombinant human lysozyme (Ventria Bioscience) (enzyme)
chain: KVFERCELARTLKRLGMDGYRGISLANWMCLAKWESGYNTRATNYNAGDRSTDYGIFQINSRYWCNDGKTPGAVNACHLSCSALLQDNIADAVACAKRVVRDPQGIRAWVAWRNRCQNRDVRQYVQGCGV
notes: Bought product (159-53LZ-90P); also called huLYS; LyzR
With B1, the binding result with Tp17-HIS monomers and with Tp17-HIS dimers was “binds” each time.

B2: human breast milk lysozyme (enzyme)
chain: B1 chain
notes: also called human lysozyme; huLYS
In the case of B2, the binding result with GST-Tp47 fusion protein is on record as “no binding”.
